The supplement of paper PMC9170038

Columns and labels:
MS2 coat protein [1] = assay: apparent KD of MS2 coat protein, switch ON state; designed switch direction (-1 OFF switch, 1 ON switch): 1; higher = weaker reporter binding; details: FMN input: 0 or 200 uM; Eterna round: R93 (includes R88 designs)
Procedure, shortened: (§1)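 Illumina sequencing clusters were used for on-chip transcription of designed RNA switches. Titration with SNAP-549-labelled MS2 coat protein followed, in twofold steps from 0.7 or 1.5 nM to 3 µM in 100 mM Tris-HCl pH 7.5, 80 mM KCl, 4 mM MgCl2, without or with constant ligand. Apparent KD is each design's median of fits to normalised cluster binding curves.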

MS2 coat protein [2] = assay: apparent KD of MS2 coat protein, switch OFF state (with FMN for OFF switches, without FMN for ON switches); designed switch direction (-1 OFF switch, 1 ON switch): 1; higher = weaker reporter binding; details: FMN input: 0 or 200 uM; Eterna round: R93 (includes R88 designs)
Procedure, shortened: as §1

Row | Sequence | apparent KD of MS2 coat protein (MS2 coat protein [1]) | apparent KD of MS2 coat protein (MS2 coat protein [2])
1 | AAAUAACAUGAGGAUCACCCAUGUGGGCUUAAGCAAGGAUAUGGGCACUCAAAAGUAGCGCCAGAAGGUGCAGUCG [Anrabitien] | 56.1 nM | 145 nM
2 | AAAUAACAUGAGGAUCACCCAUGUUGCAACGGUACAGGAUAUGUGGGUGAAAAUAGCAUGACAGAAGGGUAGUGUA [SameState1 Malc#30] | 207 nM | 150 nM
3 | AAAUAGUGCAUUAAGGAUAUGUCGCAUGACACAUGAGGAUCACCCAUGUGGUAACACAGAGGGUGGCAGAAGGUAGUGUGCAAAC [Mod 3 of Pariah 6 (Round1) by Hyphema] | 108 nM | 15.1 nM
4 | AACAAACAUGAGGAUCACCCAUGUCAAACAAACCAAGGAUAUGGGAAGCGAGACUCGCUACCAGAAGGUGGAAAUU [Edtigebe] | 43.8 nM | 176 nM
5 | AACAAUCUAUCUGAGGAUAUCAUGAAAAAAACAUGAGGAUCACCCAUGUGCAGGAAAACUGCAUAUGAGAAGGCAGAUAGAUUGA [SS2: 1101] | 21.6 nM | 913 nM
6 | AACAAUCUAUCUGAGGAUAUCAUGUCAAAGACAUGAGGAUCACCCAUGUCUAGGAAAACUAGAUAUGAGAAGGCAGAUAGAUUGA [SS2 :P - 597] | 23.2 nM | 126 nM
7 | AACAAUCUAUCUGAGGAUAUGUGUCGAAAGACAUGAGGAUCACCCAUGUGAAAACAUGGGAAAACACAGAAGGCAGAUAGAUUGA [SS2: 1152] | 54.9 nM | 33.2 nM
8 | AACUAACAUGAGGAUCACCCAUGUUACAGCAGUUGAGGAUAUGUGGGUGAAAAUAGCAUGGCAGAAGGCGAGUGUA [SameState1 Malc#24] | 53.9 nM | 127 nM
9 | AAGAAACAUGAGGAUCACCCAUGUAAUAAUAUGGGAGGAUAUACAAGGACGUAAGUCAAGGUAGAAGGCCUAAGAA [Mat - Same State 1 - Meechl mod - D141] | 21 nM | 137 nM
10 | AAGAAACAUGAGGAUCACCCAUGUAGAAAUAUGGGAGGAUAUACAAAGACGAAAGUCAAAGUAGAAGGCCUAAGAA [Mat - Same State 1 - Meechl mod - D129] | 16.6 nM | 63.2 nM
11 | AAGAAAGUUUACGAGGAUAUGUUCCGCAGUACAUGAGGAUCACCCAUGUGAACACGAAGGGCGACGCAGAAGGCGUGAGCAAUGA [Orononed] | 30.9 nM | 89.2 nM
12 | AAUAAAAAUAGUCAGGAUAUGAGAACUAAGACAUGAGGAUCACCCAUGUAAACAGAACAAGUAAAUCAGAAGGGACAGGGUGAAA [JR_SS002_Sub201] | 39.3 nM | 30.2 nM
13 | AAUAACAAAAGAAAGGAUAUGCGCACAGGAACAUGAGGAUCACCCAUGUGGCCCGAAAGGGCAUAGCAGAAGGUUCACACGCAUA [Default title] | 32.7 nM | 42 nM
14 | AAUACACAUGAGGAUCACCCAUGUAGAAACAAGUCAGGAUAUCCGAUCCACAUGUGAUAAGGAGAAGGGACAAUAA [SS 1 Tesla 7] | 25.5 nM | 163 nM
15 | AAUACACAUGGUCAGGAUAUCGCAGCUAGGACAUGAGGAUCACCCAUGUCGUACGUAACCGUAAAUGAGAAGGGACAGGGUGACC [JR_SS002_Sub408] | 145 nM | 54.1 nM
16 | AAUAUAUUAAGCGAGGAUAUCGAGGAAAAAACAUGAGGAUCACCCAUGUGGGUAAAAAAAAAAAGUGAGAAGGUGCUUAAUAUAU [Samwise Clockwise 9 - Jieux - Same State 2] | 31.8 nM | 74.7 nM
17 | AAUAUAUUAAGUGAGGAUAUCGAGAAAAAAACAUGAGGAUCACCCAUGUGGGAAACAUGGUAGGGUGAGAAGGUACUUAAUAUAU [Samwise Clockwise 22 - Jieux - Same State 2] | 270 nM | 399 nM
18 | ACAAUACAUGAGGAUCACCCAUGUUAGCUGGGCGAAGGAUAUGUAGAUGGAUAAAAAUAUGCAGAAGGUCGAUAAC [JR_SS001_Sub209] | 68.7 nM | 109 nM
19 | ACCCGAAAGACGUAGGAUAUGUGGUCACCGACAUGAGGAUCACCCAUGUAUGCGGGAGAAUGGGUGCAGAAGGACGCUGUUCGGU [Antilera] | 21.9 nM | 192 nM
20 | AGAAAACAUGAGGAUCACCCAUGUGACAAUAUGGGAGGAUAUACGAAGACGAAAGUCGAAGUAGAAGGCCUAAAGA [Garnet 50] | 23.4 nM | 66.7 nM
21 | AGAAAACAUGAGGAUCACCCAUGUGAUAACAUGGGAGGAUAUACGAGGACGAUAGUCAAGGUAGAAGGCCUAAAGA [Garnet 71] | 97.3 nM | 32.1 nM
22 | AGAAAUAAAAAUGAGGAUAUGCAAAAGAAAACAUGAGGAUCACCCAUGUAAAAGAAAAUAAAUGGGCAGAAGGCAUGAAAUAAAGA [Helter Skelter 3] | 33.8 nM | 75.1 nM

Row | Sequence | apparent KD of MS2 coat protein (MS2 coat protein [1]) | apparent KD of MS2 coat protein (MS2 coat protein [2])
23 | AGAAAUAAAACACAGGAUAUCCAAAAGAAAACAUGAGGAUCACCCAUGUAAAAUAAAAUAAAAUGGGAGAAGGGUGAAAAUAAGA [Mat - Same State 2 - JL mod - D5] | 150 nM | 50.2 nM
24 | AGAAAUAAAAGGCAGGAUAUCCAAAAAAAAACAUGAGGAUCACCCAUGUAAAAAAAAAAAAAAUGGGAGAAGGGCCAAAUAAAGA [Mat - Same State 2 - Eli mod - D88] | 16 nM | 37.5 nM
25 | AGAAGACAUGAGGAUCACCCAUGUGGGAAUAUGGGAGGAUAUACAAAGACGAGAGUCAGAGUAGAAGGCCUAGGAG [salish99-SS1-093] | 63.3 nM | 150 nM
26 | AGGAAACAUGAGGAUCACCCAUGUAAAAAAUAUGGAGGAUAUACUAGAAGAAACAAAAUAGUAGAAGGCCAAAAAA [75%, Ex sub1, 31] | 15.2 nM | 19.4 nM
27 | AGGAAACAUGAGGAUCACCCAUGUAAGAUAUACACAGGAUAUGCGAAAAGAAACAAAGAAGCAGAAGGGUGGAAAA [75%, Ex sub1, 11] | 16.5 nM | 31.6 nM
28 | AGGAGACAUGAGGAUCACCCAUGUGAGAAGAGGCGAGGAUAUCGAAAGAAAGAAGAGAAACGAGAAGGCGCGAGGA [salish99-SS1-019] | 29.8 nM | 58.5 nM
29 | AUAAAACAUGAGGAUCACCCAUGUAAAAAAGCAUGAGGAUAUAUAAAAAGAAAAAGAAGAAUAGAAGGCAUAGUAA [JR_SS001_Sub1222] | 71.4 nM | 52.1 nM
30 | AUAAAACAUGAGGAUCACCCAUGUAGAAAUAUGGGAGGAUAUACAAAGACGAAAGUCGAGGUAGAAGGCCUAAAAG [Mat - Same State 1 - Meechl mod - D121] | 21.3 nM | 97.9 nM
31 | AUAAAACAUGAGGAUCACCCAUGUAGAAAUAUGGGAGGAUAUACGAAGACGAAAGUCAAAGUAGAAGGCCUAAAAG [Mat - Same State 1 - Meechl mod - D115] | 26.5 nM | 83.6 nM
32 | AUAAAAUAAAAGGAGGAUAUCCUAAAUAAAACAUGAGGAUCACCCAUGUAAAAAAUAAUAAAAUGGGAGAAGGCCUAAAAUAAAU [SS2 M 25] | 16.9 nM | 35 nM
33 | AUAAAAUAAAUUGAGGAUAUCUAUAAUAAAACAUGAGGAUCACCCAUGUUUAAACAAAGAUCAUGGGAGAAGGCAGAAAAUAAAU [SS2 M 37] | 12.5 nM | 20.6 nM
34 | AUAACAACGUAUGAGGAUAUCCAUAAUAAAACAUGAGGAUCACCCAUGUGAAUAAAAUAACAAUGGGAGAAGGCAUACGUACAAU [SS 2 M 51] | 12.1 nM | 16 nM
35 | AUAAGACAUGAGGAUCACCCAUGUAUAAGAGCAUGAGGAUAUAUAAAAAGAAAAAGGAGAAUAGAAGGCAUAGUUG [JR_SS001_Sub1221] | 84.1 nM | 107 nM
36 | AUAAUAAACUGUGAGGAUAUCCAUAAUAAAACAUGAGGAUCACCCAUGUGUAGAUAAUAAUAAUGGGAGAAGGCACAUAAUAAUA [Mat - Same state - Mayanna Mod - D102] | 19.6 nM | 26.2 nM
37 | AUAUAAAUAAGGUAGGAUAUACUAAAGUAAACAUGAGGAUCACCCAUGUGAAGAAAGAAACUCAUGUAGAAGGACCAUAUAUAUA [viburnum 2] | 27.2 nM | 248 nM
38 | AUAUAUAUAAGGUAGGAUAUACUAAAGUAAACAUGAGGAUCACCCAUGUAAAGAAAGAAACUCAUGUAGAAGGACCAUAUAUAUA [Original: 77%, More Tesla, 1] | 21.3 nM | 99.9 nM
39 | AUAUGAGCUAUGGAGGAUAUCCAUAACAAGACAUGAGGAUCACCCAUGUAAUCAAAACAAUAAUGGGAGAAGGCCAUAGCUCAAU [SS 2 M47] | 76.3 nM | 50.9 nM
40 | AUUAUUAUUACGCAGGAUAUCGAGGUUUUUACAUGAGGAUCACCCAUGUUUUUUUUUUUAUAUUACGAGAAGGGCGAUAUUAUUA [salish99-SS2-01] | 22.9 nM | 21.9 nM
41 | CAGAGACAUGAGGAUCACCCAUGUAGGAUUAUGGGAGGAUAUACAAAGACGAGAGUCAGAGUAGAAGGCCUAGGAC [salish99-ss1-144] | 20.8 nM | 45.6 nM
42 | CAGGGACAUGAGGAUCACCCAUGUGGGAUUAUGGGAGGAUAUACAAAGACGAGAGUCAGAGUAGAAGGCCUAGGAC [salish99-ss1-128] | 37.3 nM | 85.7 nM
43 | CGGAAGGAGAGAGAGGAUAUCCAAAGGAAAACAUGAGGAUCACCCAUGUAGAAGGUAGGAAAUUGGGAGAAGGCUCAAGAGAGAG [salish99-ss2-119(!)] | 37.4 nM | 51.4 nM
